This passage reports in vitro neutralization EC50 (foci counted on Vero cells) results from patent US20170298119A1.

The labels stand for the following.
B1: ZC1 (antibody, V domains shown)
VH: QVQLVQSGAEVKKPGASVKVSCKASGYTFTSYGISWVRQATGQGLEWMGVIYPRSGNTYYAEKFRGRVTMTADKSISTAYMELSSLRSEDTAVYYCARENYGSVYWGQGTLVTVSS
VL: EIVMTQSPATLSVSPGERATLSCRASQSVGTAVAWYQQKPGQAPRLLIYSASNRYTGIPARFSGSGSGTEFTLTISSLQSEDFADYFCQQFYNYPFTFGGGTKVEIK
B2: ZC9 (antibody, V domains shown)
VH: QVQLVQSGAEVKKPGASVKVSCKASGYTFTSYGISWVRQAPGQGLEWMGVIYPRSGNTYYAQKLQGRVTMTTDTSTSTAYMELRSLRSDDTAVYYCARENYGSVYWGQGTLVTVSS
VL: EIVMTQSPATLSVSPGERATLSCRASQSVGTAVAWYQQKPGQAPRLLIYSASNRYTGIPARFSGSGSGTEFTLTISSLQSEDFADYFCQQFYNYPFTFGGGTKVEIK
B3: ZC5 (antibody, V domains shown)
VH: QVQLVQSGAEVKKPGASVKVSCKASGYSFTTYGISWVRQAPGQGLEWMGVIYPRSGNTYYAQKLQGRVTMTTDTSTSTAYMELRSLRSDDTAVYYCARENYGSVYWGQGTLVTVSS
VL: EIVMTQSPATLSVSPGERATLSCRASQSVGTAVAWYQQKPGQAPRLLIYSASNRYTGIPARFSGSGSGTEFTLTISSLQSEDFADYFCQQFYNYPFTFGGGTKVEIK
B4: ZC6 (antibody, V domains shown)
VH: QVQLVQSGAEVKKPGASVKVSCKASGYSFTTYGISWVRQAPGQGLEWMGVIYPRSGNTYYAQKLQGRVTMTTDTSTSTAYMELRSLRSDDTAVYYCARENYGSVYWGQGTLVTVSS
VL: DIQMTQSPSSLSASVGDRVTITCKASQSVGTAVAWYQQKPGKAPKLLIYSASNRYTGVPSRFSGSGSGTDFTLTISSLQPEDFATYFCQQFSNYPFTFGGGTKVEIK

The assay concerns the target ZIKV strain MR766 (E protein on infectious virus) (Zika virus strain MR766) (UniProt Q32ZE1). Nature of the assay: cell-based or functional assay.
B1 came in with an in vitro neutralization EC50 (foci counted on Vero cells) of under 0.02 µg/mL. Consider B2, for which the in vitro neutralization EC50 (foci counted on Vero cells) is under 0.02 µg/mL. As to B3, the in vitro neutralization EC50 (foci counted on Vero cells) is under 0.02 µg/mL. For B4, the in vitro neutralization EC50 (foci counted on Vero cells) is under 0.02 µg/mL.
